Read-outs that look alike come from different tables or passages of the source.
Legend:
[1] = biological target: YbaK (Escherichia coli) (UniProt P0AAR3); conditions: cited from earlier work
[2] = biological target: YbaK (Escherichia coli) (UniProt P0AAR3); conditions: cited from earlier work; remark: listed apart in the source
[3] = test system: ProXp-ala (Caulobacter crescentus); test: native MS competition; conditions: equimolar three-tRNA mix, 0.33 uM each; 5 uM protein; 1 mM Mg(OAc)2; unmodified transcript; AUC: 50 mM HEPES pH 6.8, 30 mM KCl, 1 mM MgCl2, 20 C; native MS: 200 mM ammonium acetate pH 7.5 (1 mM Mg(OAc)2 stated for ProXp-ala/YbaK competition); scale: ratio of complex tRNAPro:tRNACys:tRNAAla

Substance: ProRS (from UniProt P16659)
- Kd [1]: 45 nM
- Kd [2]: 550 nM

Substance: tRNAAla G35A
- binding signal [3]: 1

Substance: tRNACys
- binding signal [3]: 1

Substance: tRNAPro
- binding signal [3]: 4

— PMC6344894
